Measured values: publication PMC4911367
One block for each molecule: values may come before it.

Columns and labels:
[1] = target: RLC-depleted porcine cardiac (PC) myosin (porcine) (UniProt P79293); assay: reconstitution of RLC-depleted skinned muscle strips, SDS-PAGE; skinned porcine papillary muscle strips depleted of RLC with CDTA/Triton X-100, incubated with 40 uM RLC-WT or IVS6-1 and 2 mM DTT in pCa 8 solution, then RLC and TnC; washed, SDS-PAGE
[2] = target: RLC-depleted porcine cardiac (PC) myosin (porcine) (UniProt P79293); assay: co-sedimentation; ~2.8 uM RLC-depleted PC myosin titrated with 0.1-14 uM human WT or IVS6-1 RLC (molar ratio 0.1-5.0) in 0.4 M KCl, 50 mM MOPS pH 7.0, 2 mM MgCl2, 1 mM DTT, with BSA, 30 min room temperature; myosin precipitated with 13 vol ice-cold water, pellet on SDS-PAGE, RLC/ELC band ratio; apparent Kd
[3] = target: pyrene labeled rabbit skeletal F-actin (rabbit) (UniProt P68135); assay: stopped-flow pyrene fluorescence; 0.25 uM myosin with 0.25 uM pyrene labeled F-actin (0.25 uM phalloidin) in rigor buffer 0.4 M KCl, 1 mM DTT, 10 mM MOPS pH 7.0, mixed 1:1 with 10-150 uM MgATP; MgATP-induced dissociation, single exponential fit
[4] = target: pyrene labeled rabbit skeletal F-actin (rabbit) (UniProt P68135); assay: other fluorescence titration; 0.5 uM pyrene labeled F-actin titrated with myosin in 0.05 uM increments to ~2 fold molar excess, rigor conditions; excitation 340 nm, emission 407 nm; quadratic fit; apparent Kd and stoichiometry n
[5] = target: pyrene labeled rabbit skeletal F-actin (rabbit) (UniProt P68135)

Molecule: native porcine cardiac (PC) myosin (from UniProt P79293 1-1935) (complex)
k1, MgATP-induced actin-myosin dissociation rate at 10 μM MgATP [3]: 6.2 s⁻¹
k1, MgATP-induced actin-myosin dissociation rate at 25 μM MgATP [3]: 15.8 s⁻¹
k1, MgATP-induced actin-myosin dissociation rate at 40 μM MgATP [3]: 24.5 s⁻¹
k1, MgATP-induced actin-myosin dissociation rate at 60 μM MgATP [3]: 33.4 s⁻¹
k1, MgATP-induced actin-myosin dissociation rate at 80 μM MgATP [3]: 47.2 s⁻¹
k1, MgATP-induced actin-myosin dissociation rate at 125 μM MgATP [3]: 65.9 s⁻¹
k1, MgATP-induced actin-myosin dissociation rate at 150 μM MgATP [3]: 86.8 s⁻¹
Kd [4]: 2.9 nM
stoichiometry N [4]: 0.47
Km (actin) of actin-activated myosin ATPase activity [5]: 1.93 µM
Vmax of actin-activated myosin ATPase activity (F-actin 0.1-25 uM, ~1.9 uM myosin, 30°C) [5]: 0.24 s⁻¹

Molecule: porcine cardiac myosin reconstituted with human cardiac RLC IVS6-1 (from UniProt P79293 1-1935; P10916 1-134) (complex)
k1, MgATP-induced actin-myosin dissociation rate at 10 μM MgATP [3]: 5.5 s⁻¹
k1, MgATP-induced actin-myosin dissociation rate at 25 μM MgATP [3]: 14.4 s⁻¹
k1, MgATP-induced actin-myosin dissociation rate at 40 μM MgATP [3]: 21 s⁻¹
k1, MgATP-induced actin-myosin dissociation rate at 60 μM MgATP [3]: 30.5 s⁻¹
k1, MgATP-induced actin-myosin dissociation rate at 80 μM MgATP [3]: 41.4 s⁻¹
k1, MgATP-induced actin-myosin dissociation rate at 125 μM MgATP [3]: 57.5 s⁻¹
k1, MgATP-induced actin-myosin dissociation rate at 150 μM MgATP [3]: 67.8 s⁻¹
Kd [4]: 16.7 nM
stoichiometry N [4]: 0.59
Km (actin) of actin-activated myosin ATPase activity [5]: 3.33 µM
Vmax of actin-activated myosin ATPase activity (F-actin 0.1-25 uM, ~1.9 uM myosin, 30°C) [5]: 0.15 s⁻¹

Molecule: porcine cardiac myosin reconstituted with human cardiac RLC WT (from UniProt P79293 1-1935; P10916 1-166) (complex)
k1, MgATP-induced actin-myosin dissociation rate at 10 μM MgATP [3]: 7.4 s⁻¹
k1, MgATP-induced actin-myosin dissociation rate at 25 μM MgATP [3]: 15.6 s⁻¹
k1, MgATP-induced actin-myosin dissociation rate at 40 μM MgATP [3]: 19.9 s⁻¹
k1, MgATP-induced actin-myosin dissociation rate at 60 μM MgATP [3]: 36 s⁻¹
k1, MgATP-induced actin-myosin dissociation rate at 80 μM MgATP [3]: 50.4 s⁻¹
k1, MgATP-induced actin-myosin dissociation rate at 125 μM MgATP [3]: 70.4 s⁻¹
k1, MgATP-induced actin-myosin dissociation rate at 150 μM MgATP [3]: 88.7 s⁻¹
Kd [4]: 4.6 nM
stoichiometry N [4]: 0.51
Km (actin) of actin-activated myosin ATPase activity [5]: 3.67 µM
Vmax of actin-activated myosin ATPase activity (F-actin 0.1-25 uM, ~1.9 uM myosin, 30°C) [5]: 0.25 s⁻¹

Continued, values first:

percent fiber reconstitution [1]: 100%
Kd [2]: 4410 nM
Molecule: human cardiac RLC IVS6-1 (c403-1G>C) splice site mutant protein (from UniProt P10916 1-134) (natural protein)

percent fiber reconstitution [1]: 100%
Kd [2]: 1420 nM
B1: wild-type (WT) human cardiac (ventricular/slow-twitch skeletal) myosin regulatory light chain (natural protein)
chain: MAPKKAKKRAGGANSNVFSMFEQTQIQEFKEAFTIMDQNRDGFIDKNDLRDTFAALGRVNVKNEEIDEMIKEAPGPINFTVFLTMFGEKLKGADPEETILNAFKVFDPEGKGVLKADYVREMLTTQAERFSKEEVDQMFAAFPPDVTGNLDYKNLVHIITHGEEKD
